Results published in patent US20190322730A1.

Tests used:
Assay in all cases: binding screen of Example 5; the reference itself
[1] = biological target: human complement component C3 (human) (UniProt P01024)
[2] = biological target: C3c (UniProt P01024)
[3] = biological target: C3b (human) (UniProt P01024)
[4] = biological target: C3a (human) (UniProt P01024)
[5] = biological target: C3d (UniProt P01024)
[6] = biological target: iC3b (UniProt P01024)
[7] = biological target: Factor Bb (UniProt P00751)
Sequence of Factor Bb (P00751 260-764 limits assumed): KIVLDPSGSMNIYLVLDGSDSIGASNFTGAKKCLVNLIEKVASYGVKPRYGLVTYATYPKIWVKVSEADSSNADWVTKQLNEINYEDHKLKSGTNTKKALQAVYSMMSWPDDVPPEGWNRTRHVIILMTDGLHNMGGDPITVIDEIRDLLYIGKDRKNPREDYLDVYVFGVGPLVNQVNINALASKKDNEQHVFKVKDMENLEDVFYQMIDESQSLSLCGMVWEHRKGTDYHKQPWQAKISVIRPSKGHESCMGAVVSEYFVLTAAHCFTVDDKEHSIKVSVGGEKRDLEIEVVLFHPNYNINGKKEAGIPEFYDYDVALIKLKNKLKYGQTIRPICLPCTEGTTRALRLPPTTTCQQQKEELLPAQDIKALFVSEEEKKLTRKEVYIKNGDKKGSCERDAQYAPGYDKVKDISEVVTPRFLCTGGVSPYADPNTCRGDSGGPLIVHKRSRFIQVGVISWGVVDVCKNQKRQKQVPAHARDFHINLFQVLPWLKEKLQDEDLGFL

Measured: binding relative to negative control mIgG2

Sequence of C3d (P01024 1002-1303 limits assumed): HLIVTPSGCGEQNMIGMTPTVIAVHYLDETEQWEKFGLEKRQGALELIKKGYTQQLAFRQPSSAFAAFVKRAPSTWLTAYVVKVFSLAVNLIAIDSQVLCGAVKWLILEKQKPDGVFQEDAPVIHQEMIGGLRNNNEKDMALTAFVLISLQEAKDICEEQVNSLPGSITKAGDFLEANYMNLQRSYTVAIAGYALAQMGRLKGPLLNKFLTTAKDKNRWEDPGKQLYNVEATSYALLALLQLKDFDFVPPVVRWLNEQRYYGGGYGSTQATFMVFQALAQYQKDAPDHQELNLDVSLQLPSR
Sequence of C3a (human) (P01024 672-748 limits assumed): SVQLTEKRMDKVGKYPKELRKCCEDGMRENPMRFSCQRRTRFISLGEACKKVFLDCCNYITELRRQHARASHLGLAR
Sequence of human complement component C3 (human) (P01024 23-667, chain 1 of 2): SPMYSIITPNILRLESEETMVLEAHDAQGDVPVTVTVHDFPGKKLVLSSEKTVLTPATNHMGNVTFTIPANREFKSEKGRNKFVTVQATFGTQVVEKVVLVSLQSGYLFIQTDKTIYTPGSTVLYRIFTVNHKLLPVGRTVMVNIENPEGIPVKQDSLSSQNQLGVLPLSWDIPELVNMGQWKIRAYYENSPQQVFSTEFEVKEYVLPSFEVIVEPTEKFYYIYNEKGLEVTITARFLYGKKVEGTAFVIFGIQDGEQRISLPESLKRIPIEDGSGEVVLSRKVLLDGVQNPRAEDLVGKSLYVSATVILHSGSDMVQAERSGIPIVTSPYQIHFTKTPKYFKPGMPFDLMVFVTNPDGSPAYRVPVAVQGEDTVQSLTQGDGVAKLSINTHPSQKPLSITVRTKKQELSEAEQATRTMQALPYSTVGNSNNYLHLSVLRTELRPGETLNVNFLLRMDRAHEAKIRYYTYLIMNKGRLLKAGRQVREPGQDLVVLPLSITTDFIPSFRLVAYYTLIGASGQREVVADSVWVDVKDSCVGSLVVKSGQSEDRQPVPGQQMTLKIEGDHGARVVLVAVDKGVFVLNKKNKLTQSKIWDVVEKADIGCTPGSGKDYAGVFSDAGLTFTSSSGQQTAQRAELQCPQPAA
Sequence of human complement component C3 (human) (P01024 672-1663, chain 2 of 2): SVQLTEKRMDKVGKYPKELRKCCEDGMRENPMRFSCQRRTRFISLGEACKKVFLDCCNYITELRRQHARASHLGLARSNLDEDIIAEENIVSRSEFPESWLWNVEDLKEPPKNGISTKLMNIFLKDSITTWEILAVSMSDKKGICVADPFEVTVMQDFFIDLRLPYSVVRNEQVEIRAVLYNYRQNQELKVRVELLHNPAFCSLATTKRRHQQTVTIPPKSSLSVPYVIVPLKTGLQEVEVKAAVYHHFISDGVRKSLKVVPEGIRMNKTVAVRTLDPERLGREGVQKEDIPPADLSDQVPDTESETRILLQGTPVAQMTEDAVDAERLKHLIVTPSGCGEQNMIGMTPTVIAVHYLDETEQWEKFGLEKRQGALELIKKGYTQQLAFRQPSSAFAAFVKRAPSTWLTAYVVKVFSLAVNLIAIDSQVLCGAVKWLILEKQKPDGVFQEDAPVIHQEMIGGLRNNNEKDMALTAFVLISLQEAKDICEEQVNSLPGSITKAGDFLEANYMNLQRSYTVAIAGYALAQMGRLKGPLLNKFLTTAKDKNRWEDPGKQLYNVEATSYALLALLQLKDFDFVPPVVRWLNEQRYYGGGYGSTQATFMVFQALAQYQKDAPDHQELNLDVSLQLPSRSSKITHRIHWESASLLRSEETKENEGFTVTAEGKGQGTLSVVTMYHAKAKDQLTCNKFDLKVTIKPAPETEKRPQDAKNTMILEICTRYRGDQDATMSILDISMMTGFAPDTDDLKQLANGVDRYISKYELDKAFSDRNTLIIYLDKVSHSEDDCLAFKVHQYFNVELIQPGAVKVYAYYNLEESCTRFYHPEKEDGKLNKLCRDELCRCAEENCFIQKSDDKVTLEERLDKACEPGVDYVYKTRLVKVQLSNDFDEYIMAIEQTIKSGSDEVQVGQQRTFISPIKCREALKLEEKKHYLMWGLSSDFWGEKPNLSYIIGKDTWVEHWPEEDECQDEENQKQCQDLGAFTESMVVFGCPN
Sequence of C3b (human) (P01024 23-667 limits assumed, chain 1 of 2): as the sequence (P01024 23-667, chain 1 of 2) above
Sequence of C3b (human) (P01024 749-1663 limits assumed, chain 2 of 2): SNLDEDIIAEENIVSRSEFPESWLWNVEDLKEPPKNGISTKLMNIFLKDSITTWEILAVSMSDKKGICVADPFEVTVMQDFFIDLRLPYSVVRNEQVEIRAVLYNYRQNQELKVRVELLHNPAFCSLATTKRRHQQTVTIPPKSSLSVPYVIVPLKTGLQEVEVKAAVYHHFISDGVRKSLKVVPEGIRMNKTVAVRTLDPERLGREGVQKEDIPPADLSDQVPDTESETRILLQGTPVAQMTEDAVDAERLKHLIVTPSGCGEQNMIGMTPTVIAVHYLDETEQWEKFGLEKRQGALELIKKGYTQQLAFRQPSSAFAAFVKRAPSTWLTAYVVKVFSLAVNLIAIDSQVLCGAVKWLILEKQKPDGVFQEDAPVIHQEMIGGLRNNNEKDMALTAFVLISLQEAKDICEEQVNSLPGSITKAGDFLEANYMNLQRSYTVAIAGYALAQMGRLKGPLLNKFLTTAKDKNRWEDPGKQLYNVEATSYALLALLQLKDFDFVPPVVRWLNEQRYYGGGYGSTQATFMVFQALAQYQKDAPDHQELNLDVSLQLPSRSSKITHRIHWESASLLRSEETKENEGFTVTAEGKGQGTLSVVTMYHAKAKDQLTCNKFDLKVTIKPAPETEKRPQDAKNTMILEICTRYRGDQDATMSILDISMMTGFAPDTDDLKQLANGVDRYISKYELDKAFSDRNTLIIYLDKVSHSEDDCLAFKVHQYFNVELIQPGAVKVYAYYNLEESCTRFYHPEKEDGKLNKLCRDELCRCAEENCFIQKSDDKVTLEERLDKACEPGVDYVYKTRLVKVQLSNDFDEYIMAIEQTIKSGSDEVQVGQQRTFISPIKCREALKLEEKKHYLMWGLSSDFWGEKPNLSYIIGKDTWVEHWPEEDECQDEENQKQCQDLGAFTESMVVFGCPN

negative control mIgG2 antibody
0: [1] | [2] | [3] | [4] | [5] | [6] | [7]
